In the nanobody polyreactivity screen of Harvey et al. (2022):

Assay: yeast display, Sf9 membrane polyspecificity reagent, FACS + sequencing; frameworks hold sequencing errors
Summary of the method: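 Genes from sorted yeast were amplified by colony PCR, read by MiSeq 2 × 250 sequencing and filtered on CDR length. These cells carried a synthetic nanobody library in Saccharomyces cerevisiae BJ5465 and were sorted by FACS into low and high (top ~1%) gates on anti-HA and streptavidin fluorescence. Polyreactivity is labelled according to the gate of origin.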

Row | Sequence | polyreactivity (PSR sort gate)
1 | QVQLVESGGGLVQAGGSLRLSCAASGSTFFPNAMGWYRQAPGKERELVAAIRWRGGTYYADSVKVRFTISRDNAKNTVYLQMNSLKPEDTAVYYCATSVKPSYDYWGQGTQVTVSS | low polyreactivity
2 | QVQLVESGGGLVQAGGSLRLSCAASGFIFKTYAMGWYRQAPGKERELVARISKSSGNTYYADSVKGRFTISRDNAKNTVYLQMNSLKPEDTAVYYCNRRHTSKNAYTSPSEYDYWGQGTQVTVSS | low polyreactivity
3 | QVQLVESGGGLVQAGGSLRLSCAASGIIFYYYTMGWYRQAPGKETELVASITWSGGGSTYYADSVKGRFTISRDNAKNTVYLQMNSLKPEDTAVYYCNADEYYSYDYWGQGTQVTVSS | low polyreactivity
4 | QVQLVESGGGLVQAGGSHRLSCAASGFILAYYAMGWYRQAPGKERELVASINRSGGSTYYADSVKGRFTISRDNAKNTVYFQMNSLKPEDTAVHYCAHTNRGDGQWWYRYYYWGQGTQVTVSS | high polyreactivity
5 | QVQLQESGGGPVLAGCSLRLSCAASGTIFVRLDMGWYRQAPGKEREFVATIGSGSSTYYADSVKGSFTISRDNVKNTVYLQMNSLKQEDTAVYYCAVSAAEQSRHYYWDQGTQVTVSS | low polyreactivity
6 | QFQLVESGGGLVQAGGILRLSCAASGFTFRVNAMGWYRQAPGKERELVASITVSDGRTYYADSVKGRFTISRDNAKNTVYLQMNSLKPEDCAVYYCAADYKGAFTTDWSSEYEYWGQGTQVTVSS | low polyreactivity
7 | QVQLVESGGGLVQARASLRLSCAASGNTIGYYAMGWYRQAHGKERELVAAISKRGGSTRYADSVKGRFTISRDNAKNTVYLQMNSLKPEDTAVYYCNAEGFGSLRYSYCNSFDYWGQGTQVTVSS | high polyreactivity
8 | QVQLVESGGGLVQAGGSLRLSCAASGRIFRRYTMGWSRQAPGKERELVAAISSGGSTNYADSVKGRFTISRDNANNTVYLQMNSLKPEDTAVYYCAARFASRQHTIYYYWGQGTQVTVSS | high polyreactivity
9 | QVQLVESGGGLVQAGGSLRLSCAASGSTIGSYAMRLSRQAPGTERELVAVITSDGRTNYADSVKGRFTISRDNAKNTVYLQMNSLKPEDTAVYYCAAGYGRWRYGTGVYDNYYYWGQGTQVTVSS | low polyreactivity
10 | QVQLVESGGGLVQAGGSLRLSCAASGSIFLTYAMGWYRQAPGKERELVAAITDSDGSTSYADSVKGRFTISRDNAKNTVYLQMNSLKPEDTAVYYCAKDFPGRRPPKDPSAFYYWGQGTQVTVSS | low polyreactivity
11 | QFQLVESGGGLVQAGGSLRLSCAASGFIFKRYTMGWYRQAPGKERELVAAISFSGGSTYYADSVKGRFTISRDNAKNTVYLQMNSLKPEDTAVYYCAKVYRVVPATQKEYGYWGQGTQVTVSS | high polyreactivity
12 | QVQLVESGGGLVQAGGSLRLSCAASGSTFNANAMGWYRQAPGKERELVAGISSGGSTYADSVKGRFTISRDNAKNTVYLQMNSLKPEDSAVYYCNADYYSWYPTFYWYDYWGQGSQVTVSS | high polyreactivity
13 | QVQLVESGGGLVQAGGSLRLSCTASGTIVPVYAMGWYRQAPGKERELVADITYTTGSTYYAVSVKGRFTISRENAKNSVYLQMNSLKPEDTAVYYCAKDFGFQSDSWGQGTQVTVSS | low polyreactivity
14 | QVRLVESGGGLVQAGGSLRLSCAASGSIFAPYAMGWYRQAPGKERELVATIRTTGDSTYYADSVKGRFTISRDNAKNTVYLQMNSLKPEDTAVYYCAKSEPLVVGVSPWYQVDYCGQGTQVTVSS | low polyreactivity
15 | QVQLVESGGGLVQAGGSLRLSCAASGGTFDSNAMGWYRQAPGKERELVAAISSGGSTYYADSVKGRFTISRDNAKNTVYLQMNSLKPEDTAVYYCAADSSGGASAPMDYWGQGTQVTVSS | low polyreactivity
16 | QVQLVESGGGLVQAGGSLRLSCAASGRTFYRNAMGWYRQAPGKERELVATITRRGGSTYYADSVKGRFTISRDNAKNTVYLQMISLKPEDTAVYYCAAGSKDLYRPYDYWGQGTQVTVSS | high polyreactivity
17 | QVQLVESGGGLVQAGGILRLSCAASGSIFPYYAMGWYRQAPGKERELVATITSRGGSTYYADSVKGRFTISRDNAKNTVYLQMNSLKPEDTAVYYCNTLQPYLYDYWGQGTQVTVSS | high polyreactivity
